We go through two molecules from article PMC6677171, “Subunit interactions and arrangements in the fission yeast Mis16–Mis18–Mis19 complex” (Life Science Alliance, 2019).

In one test the test system is Cnp1–H4. Put plainly: Pull-down competition with full-length histones Cnp1–H4 (histone octamers). In kind it is binding, S. pombe. Conditions: incubation with Cnp1–H4–H2A–H2B octamers (molar excess); 25 mM Tris–HCl, pH 7.5, 500 mM NaCl, 5% glycerol, 1 mM TCEP, at least 1 h at 4°C; SDS–PAGE. On the procedure: We were unable to purify these directly as recombinant proteins, probably because of the lack of a suitable chaperone. […] As free Mis19 is extremely unstable, we tested if preformed Mis16–Mis19 dimers (full-length and N-terminally truncated, see sections below) could also interact with H4–Cnp1 by incubating them in a large molar excess of histone octamer.
All proteins were expressed in insect cells using standard procedures. Genes were codon-optimised in all cases (GeneArt). Single protein constructs were cloned in pFastBac vectors (Invitrogen), whereas multi-protein complexes were cloned using the MultiBac system ([Fitzgerald et al, 2006]). The Mis16 protein carried a TEV protease-cleavable double-Strep-Tactin tag at the N terminus for purification purposes. All clones were sequence verified. Baculoviruses were generated and amplified using Sf21 cells, infected in Hi5 cells, and then further incubated at 27°C for 48 h. Harvested cells were lysed by sonication in buffer A containing 50 mM Tris–HCl, pH 7.5, 150 mM NaCl, 0.5 mM TCEP, benzonase nuclease (3 units/1 × 10^6 cells), 10% glycerol, and protease inhibitors cocktail set III (Calbiochem). […]
All in vitro pull-down assays were performed using purified proteins or protein complexes. […] Input and pull-down elution samples were analysed by SDS–PAGE.

The target of a further test is T1, Mis16 (Schizosaccharomyces pombe, UniProt O94244).
T1 construct: double-Strep-Tactin tag (TEV protease-cleavable) (N, cleaved yes); made in house; host or cells: insect cells (baculovirus made in Sf21, expression in Hi5)
T1 sequence (O94244 whole entry): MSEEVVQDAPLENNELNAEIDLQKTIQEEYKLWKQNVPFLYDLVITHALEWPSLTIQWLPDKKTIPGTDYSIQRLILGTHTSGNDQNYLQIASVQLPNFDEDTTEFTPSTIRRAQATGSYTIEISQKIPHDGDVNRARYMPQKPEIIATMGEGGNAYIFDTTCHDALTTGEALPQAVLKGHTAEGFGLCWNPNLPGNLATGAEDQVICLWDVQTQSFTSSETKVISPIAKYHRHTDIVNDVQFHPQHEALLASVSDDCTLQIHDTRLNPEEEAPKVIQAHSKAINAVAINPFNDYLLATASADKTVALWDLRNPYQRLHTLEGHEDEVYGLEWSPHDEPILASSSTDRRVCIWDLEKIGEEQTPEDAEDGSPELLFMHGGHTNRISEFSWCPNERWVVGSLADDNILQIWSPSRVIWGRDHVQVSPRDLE
In words: Co-expression and affinity pull-down/size-exclusion co-purification of Mis19 deletions with Mis16. Conditions: co-expressed in insect cells, Strep-Tactin tag on Mis16, gel filtration, SDS–PAGE band. Format: binding, S. pombe. From the text: Figure 2. Mis16–Mis19 contact regions. (A) Crystal structure of Mis16–Mis19 highlighting the Mis19-binding sites. Three putative binding sites A, B, and C (lighter to darker orange from N terminus to C terminus) are indicated. (B) Schematic of the various deletion constructs of Mis19 are used for binding studies showing the positions of sites A, B, and C. (C) Constructs containing affinity-tagged Mis16 and the Mis19 deletions shown above were co-expressed and purified by affinity pull-down and size-exclusion chromatography. SDS–PAGE gel of peak fractions is shown. Asterisks indicate impurities. (D) Close-up of the A- and C-binding sites. The locations of the kis1-1 (R65) and eic1-1 (F102) t.s. mutant residues are shown.
The C-terminal interaction of Mis19 with Mis16 (site C in our nomenclature) has been previously described ([An et al, 2018]). […] To test the contribution of the individual sites to the Mis16–Mis19 interaction, various truncated Mis19 constructs were designed, for which site A, […], or both A and C are missing (Fig 2B). Full-length Mis16 and Mis19C (includes sites A, B, and C, residues 52–112), construct 1 (includes site B and C, residues 66–112), construct 2 (includes binding site B, residues 66–99), and construct 3 (includes site A and B, residues 52–99) were co-expressed in insect cells, as the isolated Mis19 truncations cannot be expressed and purified. […]
In general terms: SEC sorts molecules by how far they enter the pores of the column.

B1: Mis19: S. pombe Mis18 partner protein (protein)
chain: MDLMPLEKARAIEIAFDNVFHNTKIPDNLQQFDAILKRLERRRFIPTENQKPRVYETELLVLRFREFGVKDNHNHPINLHSLRSKSLIRAQGKKLDLHNRVFLRRNVRAVKM
On to B1, for which, in the test on Cnp1–H4, the “interaction with Cnp1–H4 / histone transfer” value is given as “completely inhibits histone transfer to Mis16”.

B2: Mis19C: Mis19 truncation including sites A, B, and C, residues 52–112 (protein)
chain: PRVYETELLVLRFREFGVKDNHNHPINLHSLRSKSLIRAQGKKLDLHNRVFLRRNVRAVKM
B2: the “association with Mis16” value with Mis16 is given as “Mis19 is associated with Mis16”. Also, the “interaction with Cnp1–H4 / histone transfer” value in the test with Cnp1–H4 was “no histones can be transferred onto Strep-Mis16”.
